Data taken from publication PMC5511134, “Intrinsic dynamics study identifies two amino acids of TIMP-1 critical for its LRP-1-mediated endocytosis in neurons” (Scientific Reports, 2017).

Tests used:
[1] = target: T1, low-density lipoprotein receptor-related protein-1 (LRP-1) on mouse cortical neurons (mouse (endogenous in cortical neurons), UniProt Q91ZX7 20-4545); assay: fluorescence of ligand bound to the cell surface (released by pronase, spectrofluorimetry); mouse cortical neurons incubated at 4 °C with 5 nM eFluor-conjugated TIMP-1 or mutants, with or without 500 nM RAP or 30 µg/mL LRP-1 blocking antibodies R2629; washed, surface-digested with 0.1% pronase, fluorescence of the supernatant; settings: one partner purified
T1 construct: LRP-1 at the surface of primary cortical neurons; extracellular alpha-chain non-covalently associated with the transmembrane beta-chain; source: endogenous, primary cortical neurons from CD1 mouse embryos

MMP-2 = target: T2, MMP-2 (UniProt P08253 110-660); assay: enzyme inhibition assay (fluorogenic substrate, Morrison equation); 0.76 nM MMP-2 incubated 2 h at 27 °C with 0.17 to 13.5 nM TIMP-1 or mutants in 50 mM Tris-HCl pH 7.5, 150 mM NaCl, 5 mM CaCl2; 2.5 µM MMP-2/-7 fluorogenic substrate; settings: both partners purified
T2 construct: MMP-2; source: bought: Merck Biosciences
T2 sequence (looked up): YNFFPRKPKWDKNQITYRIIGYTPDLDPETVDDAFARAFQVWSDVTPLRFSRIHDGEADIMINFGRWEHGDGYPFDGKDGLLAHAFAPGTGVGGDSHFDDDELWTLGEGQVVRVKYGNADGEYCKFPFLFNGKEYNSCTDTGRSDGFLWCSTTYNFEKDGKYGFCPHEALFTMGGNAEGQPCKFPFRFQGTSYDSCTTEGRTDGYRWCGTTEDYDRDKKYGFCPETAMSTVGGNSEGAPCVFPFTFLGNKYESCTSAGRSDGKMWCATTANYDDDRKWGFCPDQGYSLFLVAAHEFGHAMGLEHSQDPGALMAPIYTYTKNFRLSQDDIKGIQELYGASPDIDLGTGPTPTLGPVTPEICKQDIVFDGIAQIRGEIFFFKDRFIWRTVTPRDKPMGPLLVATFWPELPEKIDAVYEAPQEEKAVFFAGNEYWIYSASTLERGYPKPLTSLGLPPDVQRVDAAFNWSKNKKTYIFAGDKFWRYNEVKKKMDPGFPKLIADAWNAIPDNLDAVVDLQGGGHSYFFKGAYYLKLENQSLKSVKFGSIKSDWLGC

MMP-3 catalytic domain = target: T3, MMP-3 catalytic domain (UniProt P08254 100-272); assay: enzyme inhibition assay (fluorogenic substrate, Morrison equation); 2.3 nM MMP-3 catalytic domain incubated 1 h at 27 °C with 0.1 to 5.4 nM TIMP-1 or mutants in 50 mM Tris-HCl pH 7.5, 150 mM NaCl, 5 mM CaCl2; 3 µM MMP-3 fluorogenic substrate; settings: both partners purified
T3 construct: MMP-3 catalytic domain; source: bought: Merck Biosciences
T3 sequence (P08254 100-272): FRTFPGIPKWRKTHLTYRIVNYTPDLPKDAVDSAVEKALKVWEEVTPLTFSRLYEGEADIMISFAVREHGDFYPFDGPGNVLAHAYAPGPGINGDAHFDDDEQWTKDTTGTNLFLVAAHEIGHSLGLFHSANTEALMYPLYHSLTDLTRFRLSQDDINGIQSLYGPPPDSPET

[2] = target: T4, Recombinant LRP-1 mini-domain DII with an Fc-tag (UniProt Q07954 852-1182); assay: SPR; Biacore T200; LRP-1 DII or DIV with Fc-tag immobilised on a CMD500m chip functionalised with anti-Fc antibody; TIMP-1 or mutants 5-160 nM injected, multi-cycle kinetics; HBS-N (50 mM Hepes, 150 mM NaCl, 0.005% Tween, pH 7.4); KD calculated from kon and koff; settings: both partners purified
T4 construct: No catalogue number is printed; also called LRP-1 domain II; source: bought: R&D
T4 sequence (looked up): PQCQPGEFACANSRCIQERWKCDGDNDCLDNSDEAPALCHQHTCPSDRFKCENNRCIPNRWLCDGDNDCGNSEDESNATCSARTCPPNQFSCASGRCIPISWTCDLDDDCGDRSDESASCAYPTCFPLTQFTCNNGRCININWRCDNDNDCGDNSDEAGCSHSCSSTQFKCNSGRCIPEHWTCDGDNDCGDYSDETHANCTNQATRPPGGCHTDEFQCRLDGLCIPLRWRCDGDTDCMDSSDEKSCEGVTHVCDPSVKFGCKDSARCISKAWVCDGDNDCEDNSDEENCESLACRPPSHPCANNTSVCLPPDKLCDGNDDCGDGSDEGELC

[3] = target: T5, Recombinant LRP-1 mini-domain DIV with an Fc-tag (UniProt Q07954 3332-3778); assay: as above; settings: both partners purified
T5 construct: No catalogue number is printed; also called LRP-1 domain IV; source: bought: R&D
T5 sequence (Q07954 3332-3778): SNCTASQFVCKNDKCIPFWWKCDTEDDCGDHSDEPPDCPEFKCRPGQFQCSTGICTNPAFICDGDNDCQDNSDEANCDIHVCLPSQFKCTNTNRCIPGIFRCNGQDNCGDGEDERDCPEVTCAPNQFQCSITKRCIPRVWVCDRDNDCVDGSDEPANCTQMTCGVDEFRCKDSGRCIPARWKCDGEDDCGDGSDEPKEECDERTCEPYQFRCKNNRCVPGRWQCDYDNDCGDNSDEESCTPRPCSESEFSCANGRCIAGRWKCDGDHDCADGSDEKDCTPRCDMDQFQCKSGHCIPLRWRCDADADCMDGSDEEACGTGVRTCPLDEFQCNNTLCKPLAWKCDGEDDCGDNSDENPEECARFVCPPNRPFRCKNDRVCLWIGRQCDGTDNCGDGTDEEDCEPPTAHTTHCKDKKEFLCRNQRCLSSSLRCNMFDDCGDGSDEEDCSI

MMP-9 = target: T6, MMP-9 (UniProt P14780 107-707); assay: enzyme inhibition assay (fluorogenic substrate, Morrison equation); 0.3 nM MMP-9 incubated 2 h at 27 °C with 0.7 to 11 nM TIMP-1 or mutants in 50 mM Tris-HCl pH 7.5, 150 mM NaCl, 5 mM CaCl2; 5 µM MMP-1/-9 fluorogenic substrate; settings: both partners purified
T6 construct: MMP-9; source: bought: Merck Biosciences
T6 sequence (P14780 107-707): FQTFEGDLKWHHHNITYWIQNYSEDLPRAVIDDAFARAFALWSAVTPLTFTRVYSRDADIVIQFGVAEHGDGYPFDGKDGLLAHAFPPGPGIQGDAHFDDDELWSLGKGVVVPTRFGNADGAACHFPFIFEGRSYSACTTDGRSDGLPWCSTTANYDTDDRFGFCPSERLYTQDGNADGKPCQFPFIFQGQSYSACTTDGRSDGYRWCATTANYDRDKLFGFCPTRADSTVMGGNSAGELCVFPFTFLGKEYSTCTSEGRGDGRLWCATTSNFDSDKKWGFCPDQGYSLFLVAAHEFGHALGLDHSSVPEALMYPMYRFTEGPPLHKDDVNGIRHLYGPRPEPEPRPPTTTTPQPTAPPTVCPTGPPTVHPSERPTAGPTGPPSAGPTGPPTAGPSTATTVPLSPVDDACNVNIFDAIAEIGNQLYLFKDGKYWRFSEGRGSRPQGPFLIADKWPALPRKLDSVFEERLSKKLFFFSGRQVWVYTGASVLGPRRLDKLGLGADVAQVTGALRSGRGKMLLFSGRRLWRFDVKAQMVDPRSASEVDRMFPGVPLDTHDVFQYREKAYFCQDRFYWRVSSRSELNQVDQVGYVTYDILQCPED

B1: eFluor-conjugated T1-WT (natural protein)
chain: not shown
modifications: biotinylated (ProtOn Biotin Labelling Kit), incubated with eFluor 450 Streptavidin
notes: TIMP-1 as in m1 (T1-WT), labelled. numbers count on: the mature protein; also called fluoT1-WT; fluo-T1-WT; source: CHO cells, stably transfected
- fluorescence at the cell surface [1]: ~1500 A.U.

B2: eFluor-conjugated T1-F12A (natural protein)
chain: not shown
modifications: biotinylated (ProtOn Biotin Labelling Kit), incubated with eFluor 450 Streptavidin
notes: TIMP-1 F12A as in m2, labelled; also called fluoT1-F12A; fluo-T1-F12A; source: CHO cells, stably transfected
- fluorescence at the cell surface [1]: ~1500 A.U.

B3: eFluor-conjugated T1-K47A (natural protein)
chain: not shown
modifications: biotinylated (ProtOn Biotin Labelling Kit), incubated with eFluor 450 Streptavidin
notes: TIMP-1 K47A as in m3, labelled; also called fluoT1-K47A; fluoT1K47A; source: CHO cells, stably transfected
- fluorescence at the cell surface [1]: ~1500 A.U.

B4: FLAG-tagged TIMP-1 (tissue inhibitor of metalloproteinases-1), wild type (natural protein)
chain: not shown
modifications: glycosylated
notes: TIMP-1, cDNA from Origene (pCMV6-XL5) cloned into p3XFLAG-CMV14 from the start ATG; secreted by CHO cells. numbers count on: the mature protein; its concentration was measured with a Human TIMP-1 ELISA kit and the modelling used PDB 1UEA; also called T1-WT; wild-type TIMP-1; source: CHO cells, stably transfected; not shown: 3X-FLAG, C-terminal, kept
- Ki (MMP-2): 0.09 nM
- Ki (MMP-3 catalytic domain): 1.18 nM
- Kd [2]: 10.8 nM
- koff [2]: 0.0136 s⁻¹
- kon [2]: 1.28e+06 M⁻¹ s⁻¹
- Kd [3]: 37.4 nM
- koff [3]: 0.0056 s⁻¹
- kon [3]: 148000 M⁻¹ s⁻¹
- Ki (MMP-9): 4.25 nM

B5: FLAG-tagged TIMP-1 F12A (natural protein)
chain: not shown
modifications: glycosylated
notes: TIMP-1, cDNA from Origene, site-directed mutant F12A; secreted by CHO cells; also called T1-F12A; source: CHO cells, stably transfected; not shown: 3X-FLAG, C-terminal, kept
- Ki (MMP-2): 0.06 nM
- Ki (MMP-3 catalytic domain): 0.58 nM
- Kd [2]: 18.5 nM
- koff [2]: 0.0192 s⁻¹
- kon [2]: 1.07e+06 M⁻¹ s⁻¹
- Kd [3]: 38.7 nM
- koff [3]: 0.0055 s⁻¹
- kon [3]: 143000 M⁻¹ s⁻¹
- Ki (MMP-9): 4.76 nM

B6: FLAG-tagged TIMP-1 K47A (natural protein)
chain: not shown
modifications: glycosylated
notes: TIMP-1, cDNA from Origene, site-directed mutant K47A; secreted by CHO cells; also called T1-K47A; T1K47A; source: CHO cells, stably transfected; not shown: 3X-FLAG, C-terminal, kept
- Ki (MMP-2): 0.03 nM
- Ki (MMP-3 catalytic domain): 0.55 nM
- Kd [3]: 26.5 nM
- koff [3]: 0.0114 s⁻¹
- kon [3]: 427000 M⁻¹ s⁻¹
- Ki (MMP-9): 4.4 nM
